Data from US20090305309A1.

Biological target: Src substrate peptide … derived from p130cas, tyrosine-phosphorylated by Src
Assay: cell-based or functional assay

cyan-to-yellow emission ratio of the purified Src reporter after in vitro phosphorylation by Src: 25%
emission ratio change of the Src reporter in HeLa cells on EGF stimulation: 25 to 35%
emission ratio change of the monomeric (A206K CFP/YFP) Src reporter in response to Src kinase in vitro: 43%
Substance: c-Src SH2 domain of the Src reporter
